From US11214614B2, “LTBP complex-specific inhibitors of TGFβ and uses thereof” (Scholar Rock, Inc., priority 2019, dated 2022)

B1: SR-AB48-HuFab (antibody, V domains shown)
VH: QVQLVESGGGVVQPGRSLRLSCAASGFTFRSYVMHWVRQAPGKGLEWVAVISHEGSGKYYADSVKGRFTISRDNSKNTLYLQMNSLRAEDTAVYYCARPRIAARRGGFGSWGQGTLVTVSS
VL: NFMLTQPHSVSESPGKTVTISCTRSSGNIDYNYVQWYQQRPGSSPTTVIYEDNVRPSGVPDRFSGSIDSSSNSASLTISGLKTEDEADYYCQSYDYDTQGVVFGGGTKLTVL
B2: SR-AB49-HuFab (antibody, V domains shown)
VH: QVQLVESGGGVVQPGRSLRLSCAASGFTFRSYVMHWVRQAPGKGLEWVAVISHEGSGKYYADSVKGRFTISRDNSKNTLYLQMNSLRAEDTAVYYCARPRIAARRGGFGSWGQGTLVTVSS
VL: NFMLTQPHSVSESPGKTVTISCTRSSGNIDYNYVQWYQQRPGSSPTTVIYEDNVRPSGVPDRFSGSIDSSSNSASLTISGLKTEDEADYYCQGYDWDTQGVVFGGGTKLTVL
B3: SR-AB50-HuFab (antibody, V domains shown)
VH: QVQLVESGGGVVQPGRSLRLSCAASGFTFRSYVMHWVRQAPGKGLEWVAVISHEGSGKYYADSVKGRFTISRDNSKNTLYLQMNSLRAEDTAVYYCARPRIAARRGGFGTWGQGTLVTVSS
VL: NFMLTQPHSVSESPGKTVTISCTRSSGNIDYNYVQWYQQRPGSSPTTVIYEDNVRPSGVPDRFSGSIDSSSNSASLTISGLKTEDEADYYCQSYDSDNQRVVFGGGTKLTVL
B4: SR-AB51-HuFab (antibody, V domains shown)
VH: QVQLVESGGGVVQPGRSLRLSCAASGFTFRSYVMHWVRQAPGKGLEWVAVISHEGSGKYYADSVKGRFTISRDNSKNTLYLQMNSLRAEDTAVYYCARPRIAARRGGFGTWGQGTLVTVSS
VL: NFMLTQPHSVSESPGKTVTISCTRSSGNIDYNYVQWYQQRPGSSPTTVIYEDNVRPSGVPDRFSGSIDSSSNSASLTISGLKTEDEADYYCQSYDYDNQAVVFGGGTKLTVL
B5: SR-AB52-HuFab (antibody, V domains shown)
VH: QVQLVESGGGVVQPGRSLRLSCAASGFTFRSYVMHWVRQAPGKGLEWVAVISHEGSGKYYADSVKGRFTISRDNSKNTLYLQMNSLRAEDTAVYYCARPRIAARRGGFGTWGQGTLVTVSS
VL: NFMLTQPHSVSESPGKTVTISCTRSSGNIDYNYVQWYQQRPGSSPTTVIYEDNVRPSGVPDRFSGSIDSSSNSASLTISGLKTEDEADYYCQSYDYDTQGVVFGGGTKLTVL
B6: SR-AB53-HuFab (antibody, V domains shown)
VH: QVQLVESGGGVVQPGRSLRLSCAASGFTFRSYVMHWVRQAPGKGLEWVAVISHEGSGKYYADSVKGRFTISRDNSKNTLYLQMNSLRAEDTAVYYCARPRIAARRGGFGTWGQGTLVTVSS
VL: NFMLTQPHSVSESPGKTVTISCTRSSGNIDYNYVQWYQQRPGSSPTTVIYEDNVRPSGVPDRFSGSIDSSSNSASLTISGLKTEDEADYYCQGYDWDTQGVVFGGGTKLTVL
B7: SR-AB54-HuFab (antibody, V domains shown)
VH: QVQLVESGGGVVQPGRSLRLSCAASGFTFRSYVMHWVRQAPGKGLEWVAVISHEGSGKYYADSVKGRFTISRDNSKNTLYLQMNSLRAEDTAVYYCALPRIAARRGGFGSWGQGTLVTVSS
VL: NFMLTQPHSVSESPGKTVTISCTRSSGNIDYNYVQWYQQRPGSSPTTVIYEDNVRPSGVPDRFSGSIDSSSNSASLTISGLKTEDEADYYCQSYDSDNQRVVFGGGTKLTVL
B8: SR-AB55-HuFab (antibody, V domains shown)
VH: QVQLVESGGGVVQPGRSLRLSCAASGFTFRSYVMHWVRQAPGKGLEWVAVISHEGSGKYYADSVKGRFTISRDNSKNTLYLQMNSLRAEDTAVYYCALPRIAARRGGFGSWGQGTLVTVSS
VL: NFMLTQPHSVSESPGKTVTISCTRSSGNIDYNYVQWYQQRPGSSPTTVIYEDNVRPSGVPDRFSGSIDSSSNSASLTISGLKTEDEADYYCQSYDYDNQAVVFGGGTKLTVL
B9: SR-AB56-HuFab (antibody, V domains shown)
VH: QVQLVESGGGVVQPGRSLRLSCAASGFTFRSYVMHWVRQAPGKGLEWVAVISHEGSGKYYADSVKGRFTISRDNSKNTLYLQMNSLRAEDTAVYYCALPRIAARRGGFGSWGQGTLVTVSS
VL: NFMLTQPHSVSESPGKTVTISCTRSSGNIDYNYVQWYQQRPGSSPTTVIYEDNVRPSGVPDRFSGSIDSSSNSASLTISGLKTEDEADYYCQSYDYDTQGVVFGGGTKLTVL
B10: SR-AB57-HuFab (antibody, V domains shown)
VH: QVQLVESGGGVVQPGRSLRLSCAASGFTFRSYVMHWVRQAPGKGLEWVAVISHEGSGKYYADSVKGRFTISRDNSKNTLYLQMNSLRAEDTAVYYCALPRIAARRGGFGSWGQGTLVTVSS
VL: NFMLTQPHSVSESPGKTVTISCTRSSGNIDYNYVQWYQQRPGSSPTTVIYEDNVRPSGVPDRFSGSIDSSSNSASLTISGLKTEDEADYYCQGYDWDTQGVVFGGGTKLTVL
B11: SR-AB58-HuFab (antibody, V domains shown)
VH: QVQLVESGGGVVQPGRSLRLSCAASGFTFRSYVMHWVRQAPGKGLEWVAVISHEGSGKYYADSVKGRFTISRDNSKNTLYLQMNSLRAEDTAVYYCALPRIAARRGGFGTWGQGTLVTVSS
VL: NFMLTQPHSVSESPGKTVTISCTRSSGNIDYNYVQWYQQRPGSSPTTVIYEDNVRPSGVPDRFSGSIDSSSNSASLTISGLKTEDEADYYCQSYDSDNQRVVFGGGTKLTVL
B12: SR-AB59-HuFab (antibody, V domains shown)
VH: QVQLVESGGGVVQPGRSLRLSCAASGFTFRSYVMHWVRQAPGKGLEWVAVISHEGSGKYYADSVKGRFTISRDNSKNTLYLQMNSLRAEDTAVYYCALPRIAARRGGFGTWGQGTLVTVSS
VL: NFMLTQPHSVSESPGKTVTISCTRSSGNIDYNYVQWYQQRPGSSPTTVIYEDNVRPSGVPDRFSGSIDSSSNSASLTISGLKTEDEADYYCQSYDYDNQAVVFGGGTKLTVL
B13: SR-AB60-HuFab (antibody, V domains shown)
VH: QVQLVESGGGVVQPGRSLRLSCAASGFTFRSYVMHWVRQAPGKGLEWVAVISHEGSGKYYADSVKGRFTISRDNSKNTLYLQMNSLRAEDTAVYYCALPRIAARRGGFGTWGQGTLVTVSS
VL: NFMLTQPHSVSESPGKTVTISCTRSSGNIDYNYVQWYQQRPGSSPTTVIYEDNVRPSGVPDRFSGSIDSSSNSASLTISGLKTEDEADYYCQSYDYDTQGVVFGGGTKLTVL
B14: SR-AB61-HuFab (antibody, V domains shown)
VH: QVQLVESGGGVVQPGRSLRLSCAASGFTFRSYVMHWVRQAPGKGLEWVAVISHEGSGKYYADSVKGRFTISRDNSKNTLYLQMNSLRAEDTAVYYCALPRIAARRGGFGTWGQGTLVTVSS
VL: NFMLTQPHSVSESPGKTVTISCTRSSGNIDYNYVQWYQQRPGSSPTTVIYEDNVRPSGVPDRFSGSIDSSSNSASLTISGLKTEDEADYYCQGYDWDTQGVVFGGGTKLTVL

These molecules were tested against huLTBP1 proTGFβ1 (Homo sapiens, UniProt P01137+Q14766) (assay: SPR (Biacore 8K) monovalent binding kinetics of Fabs, biotinylated antigen captured). Settings: Fab, huLTBP1 proTGFβ1; SR-AB42-HuFab average of five, SR-AB63-HuFab average of four replicate experiments.
Set-up: biotin (complex biotinylated)
Procedure: A Biacore 8K system was employed to determine the monovalent binding affinity and the kinetic parameters for antigen binding of test antibodies. Association and dissociation kinetics of Fab fragments SR-AB42-HuFab, SR-AB63-HuFab and SR-AB43-HuFab to antigen complexes were measured, and resulting ka, kd and KD are provided below. Briefly, the binding kinetics were evaluated by surface plasmon resonance using Biacore 8K (GE Healthcare). Biotinylated capture antigens were immobilized to the chip (10 nM, ˜200 RU loading). A Biotin CAPture sensor chip was used to capture the biotinylated antigens. Fabs at 10, 5, 2.5, 1.25, and 0.6 nM concentrations were injected over the captured antigens. 0 nM was used as a reference. Affinities of LTBP antibodies to GARP and LRRC33 were confirmed using higher concentration of Fabs (100, 50, 25, 12.5, 6.25 nM). 0 nM was used as a reference. Multi-cycle kinetics was employed where each analyte concentration was injected in a separate cycle and the sensor chip surface was regenerated after each cycle. All the assays were carried out in freshly prepared 1×HBS-EP+buffer (10 mM HEPES, 150 mM NaCl, 3 mM EDTA, 0.05% Tween20, pH 7.4). Data were fit globally to a 1:1 binding model to obtain the kinetic parameters. The sensorgram for 0 nM analyte concentration was used as reference.
• 96 well plates—Greinerbio-one REF 650101 • Microplate Foils—GE Healthcare—CAT #28-9758-16 • Biotin CAPture Kit GE Healthcare product number 28920233 • Biacore running buffer—supplied as a 20× solution, diluted in Milli-Q water, TEKnova CAT #H8022 Method:
These experiments were performed using the Biacore 8K using the method “multi-cycle kinetics/affinity using Biotin CAPture kit.”
Data collection rate was set to 10 Hz and the Biotin CAPture step was performed for 300 seconds with a flow rate of 2 μL/minute. The Biotin CAPture reagent was used after a 1:5 dilution in 1× Biacore running buffer. Biotinylated ligands (the various complexes of TGFβ1) were utilized at a concentration of 10 nM and were immobilized to the sensor chip for 180 seconds with a flow rate of 10 μL/minute. The analytes, which are each of the Fabs, were tested at 10, 5, 2.5, 1.25, and 0.625 nM with a 0 nM control included. Analyte contact time was 120 seconds and the dissociation time was 900 seconds. The regeneration cycle utilized was 120 seconds with a flow rate of 10 μL/minute.
The evaluation method used was “multi-cycle affinity using capture” and a 1:1 binding model was used. […] Global fits were utilized for every KD determination.

huLTBP1 proTGFβ1, sequence (P01137 30-390): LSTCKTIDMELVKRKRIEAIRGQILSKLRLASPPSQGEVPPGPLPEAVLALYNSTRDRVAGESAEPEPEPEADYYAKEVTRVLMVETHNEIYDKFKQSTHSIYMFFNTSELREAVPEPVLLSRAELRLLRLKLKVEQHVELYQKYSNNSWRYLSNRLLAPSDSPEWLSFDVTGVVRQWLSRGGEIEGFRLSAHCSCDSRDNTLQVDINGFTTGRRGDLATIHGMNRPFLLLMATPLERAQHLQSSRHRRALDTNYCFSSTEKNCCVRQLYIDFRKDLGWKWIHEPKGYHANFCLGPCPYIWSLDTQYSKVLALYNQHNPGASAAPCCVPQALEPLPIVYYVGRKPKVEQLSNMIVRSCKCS
huLTBP1 proTGFβ1, sequence (Q14766 347-1721 limits assumed): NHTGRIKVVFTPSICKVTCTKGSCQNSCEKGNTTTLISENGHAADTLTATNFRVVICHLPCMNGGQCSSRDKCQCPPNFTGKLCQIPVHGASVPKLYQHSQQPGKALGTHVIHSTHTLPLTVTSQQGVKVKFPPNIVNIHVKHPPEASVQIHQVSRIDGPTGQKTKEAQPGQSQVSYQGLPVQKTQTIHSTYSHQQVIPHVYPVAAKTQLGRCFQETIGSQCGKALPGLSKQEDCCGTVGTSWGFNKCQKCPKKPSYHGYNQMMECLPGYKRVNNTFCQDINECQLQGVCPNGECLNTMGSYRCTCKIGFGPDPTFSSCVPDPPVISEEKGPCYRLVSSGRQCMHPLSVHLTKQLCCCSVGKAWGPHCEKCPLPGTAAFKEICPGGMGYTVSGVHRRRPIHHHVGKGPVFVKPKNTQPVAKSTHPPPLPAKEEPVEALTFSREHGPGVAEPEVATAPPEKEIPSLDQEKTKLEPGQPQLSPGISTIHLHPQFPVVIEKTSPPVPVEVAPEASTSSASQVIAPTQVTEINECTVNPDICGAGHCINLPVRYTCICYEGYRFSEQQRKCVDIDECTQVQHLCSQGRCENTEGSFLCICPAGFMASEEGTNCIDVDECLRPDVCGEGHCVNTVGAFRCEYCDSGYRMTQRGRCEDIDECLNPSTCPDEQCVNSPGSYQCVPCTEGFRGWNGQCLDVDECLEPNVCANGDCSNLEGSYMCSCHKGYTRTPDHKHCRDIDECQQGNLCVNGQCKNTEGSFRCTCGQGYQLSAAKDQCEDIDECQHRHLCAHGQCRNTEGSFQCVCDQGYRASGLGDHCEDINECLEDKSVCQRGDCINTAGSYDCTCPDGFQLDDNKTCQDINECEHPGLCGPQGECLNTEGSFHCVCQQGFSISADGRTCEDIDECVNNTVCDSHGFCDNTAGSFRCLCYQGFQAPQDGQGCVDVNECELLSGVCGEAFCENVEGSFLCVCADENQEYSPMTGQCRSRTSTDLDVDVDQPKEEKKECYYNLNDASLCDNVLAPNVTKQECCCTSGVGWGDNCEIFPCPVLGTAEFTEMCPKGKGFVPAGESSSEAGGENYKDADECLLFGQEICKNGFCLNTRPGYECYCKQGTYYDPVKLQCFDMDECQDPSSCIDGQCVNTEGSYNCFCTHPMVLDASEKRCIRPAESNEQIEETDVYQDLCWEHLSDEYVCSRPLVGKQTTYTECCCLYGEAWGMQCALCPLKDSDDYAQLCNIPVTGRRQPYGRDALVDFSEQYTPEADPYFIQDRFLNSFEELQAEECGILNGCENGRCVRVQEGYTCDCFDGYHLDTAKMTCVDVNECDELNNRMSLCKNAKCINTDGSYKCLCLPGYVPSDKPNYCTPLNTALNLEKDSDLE

| Molecule | ka [M⁻¹ s⁻¹] | kd [s⁻¹] |
| --- | --- | --- |
| B1 | 1.76e+06 | 0.000104 |
| B2 | 809000 | 0.000138 |
| B3 | 3.31e+06 | 0.000182 |
| B4 | 2.55e+06 | 0.00015 |
| B5 | 2.5e+06 | 9.91e-05 |
| B6 | 1.82e+06 | 0.000128 |
| B7 | 1.8e+06 | 8.83e-05 |
| B8 | 862000 | 0.000113 |
| B9 | 2.58e+06 | 0.000126 |
| B10 | 1.35e+06 | 0.000181 |
| B11 | 3.11e+06 | 0.000162 |
| B12 | 2.55e+06 | 0.00013 |
| B13 | 2.35e+06 | 0.00012 |
| B14 | 1.17e+06 | 0.000155 |
